Test results: patent US20240369485A1, “FLUORESCENT SENSOR FOR MONITORING CALCIUM DYNAMICS” (priority 2021, published 2024)
Where two headings read alike, the source gives them in different places.

Tests used:
[1] = Calcium (Ca^2+) binding assay: fluorescence/absorbance titration of purified protein
Experimental: Calcium (Ca^2+) binding assay. 10 μM protein samples of mApple, EGFP, and mCherry variants were titrated with different concentrations of Ca^2+. Data were fitted with a 1:1 binding equation. Fluorescence intensities were collected using a Spectrofluorimeter (Photon Technology International, Inc.) and the absorbance values of Ca^2+-free and Ca^2+-loaded forms were determined using a Shimadzu UV-1601 spectrophotome.
Ca^2+ binding assay. Fluorescence measurements of mApple variants with increasing Ca^2+ concentrations were done in order to obtain the affinity of the sensor for Ca^2+ in vitro. Samples of 10 μM mApple variants with 5 μM EGTA were prepared in triplicate in 1 mL volumes in 10 mM Tris, pH 7.4. The samples were placed in quartz fluorescence cuvettes, and metal ion was titrated into each sample, in a stepwise manner, using 0.1 M and 1 M metal stock solutions. The fluorescence response of the indicator to increasing Ca^2+ concentrations was monitored using a fluorescence spectrophotometer (Photon Technology International, Canada) with the Felix32 fluorescence analysis software. The absorbance spectra before and after titration were obtained using a Shimadzu UV-1601 spectrophotometer.

[2] = pKa determination of the chromophore; type: physicochemical
Experimental: pKa determination. To measure the chromophore pKa of mApple, EGFP, and mCherry variants, the proteins were prepared in buffers (sodium acetate buffer for pH 3-5, MES buffer for pH 5-6, HEPES buffer for pH 6.5-8, TRIS buffer for pH 8.5-9) covering a pH range from 3 to 10. All samples were Incubated at 4° C. overnight, then the following day, the absorbance and fluorescence spectra were collected using a Shimadzu UV-1601 spectrophotometer and the Spectrofluorimeter.

[3] = Quantum yield, extinction coefficient, and brightness determination; type: physicochemical; parameters: key to Brightness: extinction coefficient × quantum yield
Experimental: Quantum yield, extinction coefficient, and brightness determination. The quantum yield values of all the variants were determined by measuring the emitted fluorescence intensities and absorbance intensities of the chromophore at different protein concentrations. The wildtype was used as a reference to calculate quantum yield. Brightness was defined as a visual perception in which a source appears to emit or reflect a given amount of light, which was obtained by multiplying the extinction coefficient and the quantum yield.

[4] = system: C2C12 cells; test: HILO imaging of ER Ca^2+ dynamics in C2C12 cells; type: cell-based; conditions: ER Ca^2+ release
Experimental: Cell culture and transfection. C2C12, HEK293 and HeLa cells were cultured and maintained in Dulbecco's modified Eagle's medium (DMEM) supplemented with 10% fetal bovine serum (FBS) and high glucose (4.5 g/L) at 37° C. R-CatchER, G-CatchER2, G-CEPIA1er, R-CEPIA1er or R-CatchER with GFP-CaSR (wt and mutations) were transfected into cells using Lipofectamine 3000 (Life Technologies), following the manufacturer's instructions. Seed cells onto sterilized 22 mm×40 mm glass microscope slides in 6 cm dishes until about 70% confluency, the day of transfection. The next day, 2 μg of plasmid were mixed with transfection reagent in the reduced serum media Opti-MEM for 4-6 h at 37° C. The media was then replaced with 3 mL of fresh DMEM and incubated at 37° C. for 48 h.
HILO imaging of R-CatchER, G-CatchER2, R-CEPIA1er, and G-CEPIA1er. […] A quad-band filter set (TRF89901v2, Chroma) was used for filtering out the fluorescence background. Fluorescence images of samples were recorded at 1 Hz as the concentration of ER Ca^2+ was perturbed by perfusion of 3 μM Thapsigargin, 0.5 mM 4-cmc, 1 mM 4-cmc, 100 μM ATP, or 100 μM histamine.

[5] = system: HeLa cells; test: Confocal imaging of R-CatchER with ER-tracker green; type: cell-based
Experimental: Confocal imaging of R-CatchER. HeLa cells were transfected with R-CatchER two days before fixing. Cells were fixed with 3.7% Thermo Scientific™ Pierce™ 16% Formaldehyde (w/v), methanol-free, and permeabilized with 0.1% Triton X-100. Cells were then stained with ER-Tracker green (Invitrogen) and with ProLong gold antifade mountant with DAPI (Invitrogen) for staining the nucleus. Confocal imaging then was performed using a Zeiss LSM 700 confocal laser scanning microscope (CLSM).

B1: R-CatchER: red genetically encoded Ca^2+ indicator, mApple A145E/K198D/R216D, SEQ ID NO: 12 (protein)
chain: EENNMAIIKEFMRFKVHMEGSVNGHEFEIEGEGEGRPYEAFQTAKLKVTKGGPLPFAWDILSPQFMYGSKVYIKHPADIPDYFKLSFPEGFRWERVMNFEDGGIIHVNQDSSLQDGVFIYKVKLRGTNFPSDGPVMQKKTMGWEESEERMYPEDGALKSEIKKRLKLKDGGHYAAEVKTTYKAKKPVQLPGAYIVDIDLDIVSHNEDYTIVEQYEDAEGRHSTGGMDELYK
- Ca^2+ induced fluorescence changes upon addition of other ions (metal selectivity) ([1]; 1 mM Mg^2+, 150 mM KCl, 150 mM NaCl): insensitive
- Fmax/Fmin ([1]; EGFP and mApple variants): 4.22
- Aholo/Aapo ([1]; absorbance at 569): 4.33 (569)
- fluorescence dynamic range ΔF/F ([1]; in vitro, Ca^2+ binding): 4.22±0.04
- Kd ([1]; in vitro, purified protein, read-out: Kd for Ca^2+ binding): 350 ± 30 µM
- Hill coefficient ([1]; purified indicator, Ca^2+ binding): 0.98
- Dynamic Range ([1]; purified indicator, Ca^2+ induced fluorescence): 4.2
- Kd ([1]; purified indicator, Ca^2+, read-out: Kd): 361 µM
- apparent pKa ([2]; 0 mM Ca^2+): 8.58±0.11
- apparent pKa ([2]; 10 mM Ca^2+): 7.11±0.10
- pka ([2]; Apo): 8.58 ± 0.11
- pKa (holo) ([2]; Holo): 7.1
- pka ([2]; Holo): 7.11 ± 0.10
- pKa (apo) ([2]; apo): 8.6
- Brightness ([3]; Apo): 0.13 ± 0.02
- Extinction coefficient ([3]; Apo): 44000 M⁻¹ cm⁻¹
- Fluorescence quantum yield ([3]; Apo): 0.30 ± 0.02
- Brightness ([3]; Holo): 0.30 ± 0.03
- Extinction coefficient ([3]; Holo): 60000 M⁻¹ cm⁻¹
- Fluorescence quantum yield ([3]; Holo): 0.50 ± 0.03
- ε (holo) (×10^4) (M^−1 cm^−1) ([3]; Holo): 6 ×10^4 M^−1 cm^−1
- ε (apo) (×10^4) (M^−1 cm^−1) ([3]; apo): 4 ×10^4 M^−1 cm^−1
- Φ (apo) ([3]; apo, quantum yield): 0.30
- Φ (holo) ([3]; holo, quantum yield): 0.50
- fluorescence decrease ΔF/F ([4]; 0.5 mM 4-cmc): 0.36±0.01
- fluorescence decrease ΔF/F ([4]; 1 mM 4-cmc): 0.47±0.02
- Pearson's Coefficient of colocalisation with ER-tracker green [5]: 0.83
